Positions count from the first letter of the chain named.
B1: 1-C09-3 (antibody, V domains shown)
VH: QVQLQQPGAELVRPGTSVKLSCKASGYTFTSYWMHWVKERPGQGLEWIGVIDPSDSYTNYNQKFKDKATLTVDTSSSTAYMQLSSLTSEDSAVYYCARSPFDYWGQGTTLTVSS
VL: DIQMTQSQKFMSTSVGDRVSVTCKASQNVGTNVAWYQQKPGQSPKALIYSASYRYSGVPDRFIGSGSGTDFTLTIRNVQSEDLAEYFCQQHNSYPFTFGGGTKLEIK
notes: From the in vitro scFv library of immunised mice
B2: 1-F12-1 (antibody, V domains shown)
VH: B1 VH with Q1E, E39Q, N59Q, D66G, L110V
VL: DIVMTQSHKFMSTSVGDRVSITCKASQDVSTAVAWYQQKPGQSPKALIYSASYRYSGVPDRFTGSGSGTDFTLTISNVQAEDLAVYYCHQHNTYPFTFGGGTKLEIK
notes: as for B1
B3: 1-F09-1 (antibody, V domains shown)
VH: B1 VH with L11V, R13M, T16A, E39Q, N59Q, D66G
VL: B1 VL with T5N, Q8H, V21I, N28D, G30S, N32A, Y53N, I106M
notes: as for B1
B4: 2-D11-1 (antibody, V domains shown)
VH: B1 VH with Q1E, S21A, T30N, S31T, K38N, E39Q, N59Q, D66G
VL: B1 VL with I2V, R76S
notes: as for B1
B5: 1-H01-1 (antibody, V domains shown)
VH: B1 VH with R13K, T16A, L20M, E39Q, D55N, N59I, D66G
VL: B1 VL with I2V, Q3V, I63T
notes: From the in vitro scFv library of immunised mice; also called clone 1-H01-1
B6: 1-C09-1 (antibody, V domains shown)
VH: B1 VH with A9T, L20M, E39Q, N59Q, D66G
VL: B1 VL with Q3V, V58I, I63T, R76S, E85D, Y86F, H91Y
notes: as for B1
B7: 27A5 (antibody, V domains shown)
VH: QVTLKESGPGILQPSQTLSLTCSFSGFSLSTFGMGVGWIRQPSGKGLEWLAHIWWDADKYSTPALKSRLTISKDTSKNQVFLKIANVDTADTATYYCARIGRNYYFDYWGQGTTLTVSS
VL: DIVMTQSPSSLAVSVGEKVTLTCKSSQTLLDSTNQKNYLAWYQQIPGQSPKLLIYWASTRESGVPDRFTGSGSGTDFTLTISSVKAEDLTVYYCQQYYTYPLTFGAGTKLELK
notes: Antibody from a monoclonal hybridoma of immunised BALB/c mice
B8: E2-B5-7_201 (antibody, V domains shown)
VH: EVQLVQSGAEVKKPGATVKISCKASGYSLSDHYMHWVQQAPGKGLEWMGRIDPHSGATKYDPKFQGRVTITADTSTDTAYMELSSLRSEDTAVYYCARSGPVYHYGSSYVMDYWGQGTTVTVSS
VL: DIVMTQSPDSLAVSLGERATINCKSGQSVFYSSNNKNYLAWYQQKPGQPPKLLIYWASTRESGVPDRFSGSGSGTDFTLTISSLQAEDVAVYYCQQYLYSWTFGQGTKLEIK
B9: D4-A7-7_201 (antibody, V domains shown)
VH: B8 VH with S28I, S30T, A57G, T58I
VL: B8 VL
notes: also called clone D4-A7-7_201
B10: E2-B5-7_211 (antibody, V domains shown)
VH: B8 VH
VL: B8 VL with S58D
B11: E2-B5-6_201 (antibody, V domains shown)
VH: B8 VH with Y103H, H104Y
VL: B8 VL
B12: 7 (antibody, V domains shown)
VH: EVQLLESGGGLVQPGGSLRLSCAASGFPFGNYLMNWVRQAPGKGLEWVSVISGGGVSTYYADSVKGRFTISRDNSKNTLYLQMNSLRAEDTAVYYCARGPSSWPAFDVWGQGTLVTVSS
VL: DIQMTQSPSSLSASVGDRVTITCRASETISNFLNWYQQKPGKAPKLLIYTTSSLQRGVPSRFSGSGSGTDFTLTISSLQPEDFATYYCQQSYSVPWTFGGGTKVEIK
notes: From phage panning of a naive antibody library; also called antibody 7; clone 7
B13: 43 (antibody, V domains shown)
VH: EVQLLESGGGLVQPGGSLRLSCAASGFTFSIHPMTWVRQAPGKGLEWVSLISTGGGSTYYADSVKGRFTISRDNSKNTLYLQMNSLRAEDTAVYYCASASVLGSGGYWSPGMDYWGQGTLVTVSS
VL: DIQMTQSPSSLSASVGDRVTITCRASQSIDRFLNWYQQKPGKAPKLLIYGASNLPSGVPSRFSGSGSGTDFTLTISSLQPEDFATYYCQQSFSIPWTFGGGTKVEIK
notes: From phage panning of a naive antibody library; also called antibody 43; clone 43

Target: T1, Programmed cell death protein 1 (PD-1), human (human, UniProt Q15116 25-167, limits assumed)
Assay: cell-based or functional assay

T1 sequence (Q15116 25-167 limits assumed): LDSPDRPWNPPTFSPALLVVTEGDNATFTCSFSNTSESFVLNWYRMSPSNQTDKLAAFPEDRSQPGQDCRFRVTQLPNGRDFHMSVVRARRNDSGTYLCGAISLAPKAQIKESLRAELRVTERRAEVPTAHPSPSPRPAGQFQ

In order of rising “PD-1 agonism EC50, PathHunter Checkpoint Signaling Assay” value:
1. B5  0.9 nM
2. B1  1.1 nM
3. B3  1.1 nM
4. B4  1.2 nM
5. B6  1.4 nM
6. B2  1.6 nM

Target: T1, Programmed cell death protein 1 (PD-1), …
Assay: SPR, PD-1 binding (FIG. 2B); SPR affinity format, FIG. 2B

In the case of B7, the Kd is reported as 55 nM.

Target: T1, Programmed cell death protein 1 (PD-1), …
Assay: SPR, PD-1 avidity (FIG. 2C); SPR avidity format, FIG. 2C

B7 gave a Kd of 0.005 nM.

Target: T1, Programmed cell death protein 1 (PD-1), …
Assay: SPR on PD-1, sensorgrams at five concentrations with fit

In order of rising Kd:
1. B10  0.695 nM
2. B11  0.71 nM
3. B9  1.1 nM
4. B8  1.2 nM

Target: T1, Programmed cell death protein 1 (PD-1), …
Assay: SPR affinity, column 'Affinity (nM)' of the drawn table

In order of falling Kd:
1. B6  150 nM
2. B1  84 nM
3. B5  78 nM
4. B2  21 nM
5. B4  15 nM
6. B3  13 nM

Target: T1, Programmed cell death protein 1 (PD-1), …
Assay: SPR avidity measurement (mimic cell surface PD-1 clusters), response in nm, three traces

In order of falling Kd:
1. B6  3.7 nM
2. B2  0.98 nM
3. B4  0.96 nM
4. B1  0.77 nM
5. B3  0.46 nM
6. B5  0.44 nM

Target: T1, Programmed cell death protein 1 (PD-1), …
Assay: SPR on PD-1, sensorgrams at three concentrations with fit

In order of rising Kd:
1. B13  6.3 nM
2. B12  16 nM

Target: T1, Programmed cell death protein 1 (PD-1), …
Assay: SPR affinity measurement, response in nm, four traces

In order of rising Kd:
1. B3  13 nM
2. B4  15 nM
3. B2  21 nM
4. B5  78 nM
5. B1  84 nM
6. B6  150 nM

Target: T1, Programmed cell death protein 1 (PD-1), …
Assay: SPR avidity, column 'Avidity (nM)' of the drawn table

In order of rising Kd:
1. B5  0.44 nM
2. B3  0.46 nM
3. B1  0.77 nM
4. B4  0.96 nM
5. B2  0.98 nM
6. B6  3.7 nM

Reference: patent publication US20240092909A1 (IBIO, published 2024)
